Assay results published in EP3408384B1, “MUTATED CELLOBIOSE DEHYDROGENASE WITH MODIFIED SUBSTRATE SPECIFICITY” (priority 2016, dated 2017).

System: OC[C@H]1O[C@@H](O[C@H]2[C@H](O)[C@@H](O)C(O)O[C@@H]2CO)[C@H](O)[C@@H](O)[C@H]1O
Experiment: Steady-state kinetics, DCIP-based enzymatic activity assay
Type: biochemical, Neurospora crassa
Conditions: other: apparent constant, 100 mM McIlvaine buffer pH 5.5, DCIP as artificial electron acceptor, 30°C
Description: Enzyme activity was assayed at 30°C using the DCIP (Karapetyan et al., 2005 Journal of Biotechnology 121: 34-48) as electron acceptor. Stock solutions of carbohydrates used for kinetic measurements were prepared in the respective buffer and allowed to stand overnight for mutarotation, while stock solutions of electron acceptors were prepared in water and immediately used. The reaction stoichiometry is 1 for the two-electron acceptor DCIP (1 mole of DCIP reduced per mole of carbohydrate oxidized. Kinetic constants were calculated by fitting the observed data to the Henri-Michaelis-Menten equation or to the adapted model for substrate inhibition using nonlinear least-squares regression and the program SigmaPlot (Systat Software, San Jose, CF, USA). The protein concentration was determined with the Bradford assay.
CDH from N. crassa oxidises glucose and galactose (Harreither et al., 2007), which has negative side effects on the lactose detection accuracy if glucose and galactose are present. […] The enzyme variant N722Q was heterologously produced in P. pastoris according to the explained routines and compared to the recombinant wild-type CDH from N. crassa. […] To investigate the effect of the mutation in the N. crassa variant a full characterization of steady-state constants was performed (Tables 2 and 3). Table 2: Apparent kinetic constants of wtCDH for indicated electron donors in 100 mM McIlvaine buffer at pH 5.5 using DCIP as artificial electron acceptor
Table 3: Apparent kinetic constants of N722Q N. crassa sensor for indicated electron donors in 100 mM McIlvaine buffer at pH 5.5 using DCIP as artificial electron acceptor

Substance: Neurospora crassa cellobiose dehydrogenase (CDH) variant N722Q (N722 of SEQ ID NO: 4 substituted by glutamine) (Neurospora crassa OR74A; N722Q)
- Km: 2.18 ± 0.28 > 10 M^b mM
- kcat: 77.92 s⁻¹
- kcat/Km: 35740 M⁻¹ s⁻¹
